Residue numbers refer to the chain shown, from its start. In names and notes the source's numbering stands. Several values for one entry are separate records, joined by “and”; a condition that tells them apart may be missing. Identical values can stand only once.
B1: YycG-C-His6 (enzyme, Staphylococcus aureus SA137/93A)
chain: MGMKWLKQLQSLHTKLVIVYVLLIIIGMQIIGLYFTNNLEKELLDNFKKNITQYAKQLEISIEKVYDEKGSVNAQKDIQNLLSEYANRQEIGEIRFIDKDQIIIATTKQSNRSLINQKANDSSVQKALSLGQSNDHLILKDYGGGKDRVWVYNIPVKVDKKVIGNIYIESKINDVYNQLNNINQIFIVGTAISLLITVILGFFIARTITKPITDMRNQTVEMSRGNYTQRVKIYGNDEIGELALAFNNLSKRVQEAQANTESEKRRLDSVITHMSDGIIATDRRGRIRIVNDMALKMLGMAKEDIIGYYMLSVLSLEDEFKLEEIQENNDSFLLDLNEEEGLIARVNFSTIVQETGFVTGYIAVLHDVTEQQQVERERREFVANVSHELRTPLTSMNSYIEALEEGAWKDEELAPQFLSVTREETERMIRLVNDLLQLSKMDNESDQINKEIIDFNMFINKIINRHEMSAKDTTFIRDIPKKTIFTEFDPDKMTQVFDNVITNAMKYSRGDKRVEFHVKQNPLYNRMTIRIKDNGIGIPINKVDKIFDRFYRVDKARTRKMGGTGLGLAISKEIVEAHNGRIWANSVEGQGTSIFITLPCEVIEDGDWDE
notes: two additional residues (Met-Gly) at the N-terminus, from the NcoI site placed in frame; Cloned NcoI/XhoI into pET22bΔpelB; also called WalK; VicK; source: E. coli C41(DE3) or C43(DE3) pREP4groESL(MT), purified from the membrane fraction (DDM, Ni-NTA); not shown: His6, C-terminal, kept
B2: YycG(Y306N)-C-His6 (enzyme)
chain: B1 chain with Y308N
notes: two additional residues (Met-Gly) at the N-terminus, from the NcoI site placed in frame; YycG (WalK/VicK) sensor histidine kinase of Staphylococcus aureus with the exchange Y306N (nucleotide exchange T916A) in the cytoplasmic PAS domain; Cloned NcoI/XhoI into pET22bΔpelB; also called mutant kinase; mutated YycG kinase; source: E. coli C41(DE3) or C43(DE3) pREP4groESL(MT), purified from the …

What was measured:
[1] = target: YycI-C-His6 (Staphylococcus aureus SA137/93A); test: native gel or EMSA; blue native PAGE (BN-PAGE) of single proteins; 4-20% Tris-HCl gradient gel; 5 µg of YycF, YycH, YycI or 10 µg of YycG, YycG(Y306N) in 10 µl dialysis buffer I (50 mM NaH2PO4, 300 mM NaCl, 50% glycerol, pH 8) with Coomassie Brilliant Blue R250; 80 V, 4-7°C; masses calibrated with soluble markers and a conversion factor
[2] = target: the molecule itself; test: as above

| Molecule | stoichiometry N [1] | stoichiometry N [2] |
| --- | --- | --- |
| YycI-C-His6 (natural protein) | < 6 |  |
| B1 |  | 2 and 3 and 4 |
| B2 |  | 2 and 3 and 4 |

From paper PMC3262814, “Purification and Activity Testing of the Full-Length YycFGHI Proteins of Staphylococcus aureus” (PLoS ONE, 2012)
